Laboratory results: patent publication US7011940

Target: ER peptide mimic
Test: immunostaining of ER peptide mimic spots on a membrane, colour scored 1-4+

- Staining intensity (1-4+): 4 1-4+ scale
Substance: 1D5 anti-human estrogen receptor mouse monoclonal antibody
